These results are taken from paper PMC8458682 (Slas Discovery, 2022).

Data set [1] addresses T1, SARS-CoV-2 M^pro (Severe acute respiratory syndrome coronavirus 2, UniProt P0DTD1). In kind it is biochemical.
For data set [2], the target named is T1, SARS-CoV-2 M^pro. The data set is described as follows: biochemical. As to conditions: read-out: Screening: Inhibition @ 50 µM.
The test system of data set [3] is CC(C)C[C@H](NC(=O)[C@@H](NC(=O)[C@@H](NC(=O)[C@@H](NC(=O)c1ccccc1N)C(C)C)C(C)C)[C@@H](C)O)C(=O)N[C@@H](CCC(N)=O)C(=O)N[C@@H](CO)C(=O)NCC(=O)N[C@@H](Cc1ccc(O)c([N+](=O)[O-])c1)C(=O)N[C@@H](CCCNC(=N)N)C(=O)O. The data set can be described thus: purified protein, by the assay type. As to conditions: pH 7.4.
Data set [4] relates to CC(C)C[C@H](NC(=O)[C@@H](NC(=O)[C@@H](NC(=O)[C@@H](NC(=O)c1ccccc1N)C(C)C)C(C)C)[C@@H](C)O)C(=O)N[C@@H](CCC(N)=O)C(=O)N[C@@H](CO)C(=O)NCC(=O)N[C@@H](CNc1ccc([N+](=O)[O-])cc1[N+](=O)[O-])C(=O)N[C@@H](CCCNC(=N)N)C(=O)O. The data set can be described thus: purified protein, by the assay type. The conditions noted are these: pH 7.4.
Data set [5] concerns CC(C)C[C@H](NC(=O)[C@@H](NC(=O)[C@H](C)NC(=O)[C@H](CO)NC(=O)c1ccccc1N)C(C)C)C(=O)N[C@@H](CCC(N)=O)C(=O)N[C@@H](CO)C(=O)NCC(=O)N[C@@H](Cc1ccc(O)c([N+](=O)[O-])c1)C(=O)N[C@@H](CCCNC(=N)N)C(=O)O. The data set is described as follows: purified protein, by the assay type. The conditions noted are these: pH 7.4.

With `CC(C)(C)NC(=O)N[C@H](C(=O)N1C[C@H]2[C@@H]([C@H]1C(=O)NC(CC1CCC1)C(=O)C(N)=O)C2(C)C)C(C)(C)C` (some centres unmarked) [Boceprevir], at SARS-CoV-2 M^pro [1], the Hill slope worked out at 0.85 ± 0.05. Moreover, the inhibition at 50 µM at SARS-CoV-2 M^pro [2] amounted to 55.5 ± 4.7%.
Turning to “SARS-CoV-2 M^pro (Severe acute respiratory syndrome coronavirus 2)”, in data set [3], the Km turned out to be 197.9 ± 39.0 µM, the Vmax was determined as 1.32 µM/min, the kcat amounted to 0.0733 ± 0.0077 s⁻¹ and the kcat/Km was determined as 370 ± 82.6 M⁻¹ s⁻¹. Further, in data set [4], the Km was 103.3 ± 18.5 µM, the Vmax came out at 0.426 µM/min, the turnover number (kcat) was 0.0237 ± 0.0017 s⁻¹ and the kcat/Km came out at 229 ± 44.2 M⁻¹ s⁻¹. In data set [5], the Km was determined as 536.3 ± 156.6 µM, the Vmax was found to be 2.39 µM/min, the turnover number (kcat) came out at 0.133 ± 0.0279 s⁻¹ and the kcat/Km worked out at 248 ± 89.2 M⁻¹ s⁻¹.

Usually Hill slope stands for the slope factor of the fitted curve. One may read the inhibition as the share of the control response that was lost under treatment. The term Km denotes the concentration of substrate that gives half-maximal velocity. A word on the Vmax: it is the rate approached at saturating substrate. The term kcat denotes the number of substrate molecules converted per active site and unit of time at saturation. Usually kcat/Km stands for the second-order rate constant that governs catalysis at low substrate concentration.
